Experimental data taken from US7531337.

T1: Acetylated acetyl-CoA synthetase (Acs^Ac), Acs of S. enterica isolated from a cobB- strain
T1 chain: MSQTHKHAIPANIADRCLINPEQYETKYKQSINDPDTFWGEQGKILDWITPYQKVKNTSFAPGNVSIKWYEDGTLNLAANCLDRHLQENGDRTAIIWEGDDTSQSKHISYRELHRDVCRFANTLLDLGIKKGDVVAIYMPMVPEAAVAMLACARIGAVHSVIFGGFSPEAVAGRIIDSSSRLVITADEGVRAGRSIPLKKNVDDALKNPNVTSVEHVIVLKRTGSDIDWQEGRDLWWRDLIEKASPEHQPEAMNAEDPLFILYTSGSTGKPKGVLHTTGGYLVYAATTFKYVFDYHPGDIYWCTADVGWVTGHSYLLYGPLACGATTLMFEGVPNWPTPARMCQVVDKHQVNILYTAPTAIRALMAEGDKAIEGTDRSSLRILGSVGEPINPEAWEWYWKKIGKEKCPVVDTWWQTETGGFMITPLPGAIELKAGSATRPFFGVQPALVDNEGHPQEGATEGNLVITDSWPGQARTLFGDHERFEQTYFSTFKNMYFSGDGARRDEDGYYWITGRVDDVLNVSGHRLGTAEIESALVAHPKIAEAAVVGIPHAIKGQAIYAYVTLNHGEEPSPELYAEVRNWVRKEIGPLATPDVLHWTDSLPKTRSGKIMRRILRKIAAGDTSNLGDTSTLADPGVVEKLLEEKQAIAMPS

B1: CobB sirtuin of S. enterica (purified, homogeneous) (protein)
chain: MQSRRFHRLSRFRKNKRLLRERLRQRIFFRDRVVPEMMENPRVLVLTGAGISAESGIRTFRAADGLWEEHRVEDVATPEGFARNPGLVQTFYNARRQQLQQPEIQPNAAHLALAKLEEALGDRFLLVTQNIDNLHERAGNRNIIHMHGELLKVRCSQSGQILEWNGDVMPEDKCHCCQFPAPLRPHVVWFGEMPLGMDEIYMALSMADIFIAIGTSGHVYPAAGFVHEAKLHGAHTVELNLEPSQVGSEFEEKHYGPASQVVPEFVDKFLKGL

What was measured:
[1] = target: Acetylated acetyl-CoA synthetase (Acs^Ac), Acs of S. enterica isolated from a cobB- strain (S. enterica) (UniProt Q8ZKF6); assay: cell-based or functional assay
[2] = target: T1, Acetylated acetyl-CoA synthetase …
[3] = scale: pmoles of acetyl-CoA formed min^-1 mg of protein^-1

| Molecule | Acs Sp. Act. (purified Acs from CobB- host, plus BSA, CobB, NAD+) (nmoles of acetyl-CoA formed min^-1 mg^-1) [1] | Acs Sp. Act. (purified Acs from CobB- host, plus CobB, NAD+) (nmoles of acetyl-CoA formed min^-1 mg^-1) [1] | Acs Specific Activity (crude cell-free extract of Acs+ cobB- strain, plus 10 µg CobB + NAD+) [1, 3] | Acs Specific Activity (crude cell-free extract of Acs+ cobB- strain, plus 10 µg CobB) [1, 3] | reactivity of Acs with anti-acetyl-lysine antibody in a time-course immunoblot [2] |
| --- | --- | --- | --- | --- | --- |
| CobB sirtuin of S. enterica (purified, homogeneous) (from UniProt P0A2F2 1-273) (enzyme) | 483 | 480 | 490 | 42 |  |
| B1 |  |  |  |  | The decreased reactivity of Acs with the antibody was dependent on the presence of NAD^+ and CobB in a time-course experiment |
